For nine molecules, EC50 results are on record in patent US20240409645A1 (published 2024).

As a reminder, the EC50 is the concentration giving half of the maximal effect. A low value points to higher potency in that assay.

The labels stand for the following.
B1: BsVHH-5 (36x16) (antibody)
chain: QVQLVESGGGLVQAGGSLRLSCAASGRTLSRYAMGWFRQAPGSEREFVAASSWGGDTFYADSVEGRFTFSRDNAKNAVYLQMNSLQPEDTAAYYCAAAPTSFPTTAYSSSNSYAYWGQGTQVTVSSGGGGSGGGGSGGGGSGSEVQLVESGGGLVQAGGSLRLSCAASGRAIENYPVGWFRQAPGKEREFVAAITWISGSTLYADSVKGRFTISRDNAKNTVYLQMSSLKPEDTALYYCAAALKTITRGQNDYSYWGQGTQVTVSSGGGGSGGGGSGGGGSTVSSDKTHTCPPCPAPEAAGGPSVFLFPPKPKDTLMISRTPEVTCVVVDVSHEDPEVKFNWYVDGVEVHNAKTKPREEQYNSTYRVVSVLTVLHQDWLNGKEYKCKVSNKALGAPIEKTISKAKGQPREPQVYTLPPSRDELTKNQVSLTCLVKGFYPSDIAVEWESNGQPENNYKTTPPVLDSDGSFLLYSKLTVDKSRWQQGNVFSCSVMHEALHNHYTQKSLSLSPGK
B2: BsVHH-11 (27x19) (antibody)
chain: QVQLVESGGGLVQAGGSLTLSCAAPGRTFGTDVVGWFRQAPGKEREFVASISRSGDGIYYDDSVKGRFTISRNNAWNTVNLQMNSLKVEDTAVYYCAAGDGWSTYDYWGQGTQVTVSSGGGGSGGGGSGGGGSGSEVQLVESGGGLVQTGGSLRLSCAASGGTFSRDAMAWFRQVPGKEREFVALISWSGATTNYADSVKGRFAISRDNGKNTVYLQMNRLKPADTAIYYCAADRRPMGSRSYFEPTEYDDWGQGTQVTVSSGGGGSGGGGSGGGGSTVSSDKTHTCPPCPAPEAAGGPSVFLFPPKPKDTLMISRTPEVTCVVVDVSHEDPEVKFNWYVDGVEVHNAKTKPREEQYNSTYRVVSVLTVLHQDWLNGKEYKCKVSNKALGAPIEKTISKAKGQPREPQVYTLPPSRDELTKNQVSLTCLVKGFYPSDIAVEWESNGQPENNYKTTPPVLDSDGSFLLYSKLTVDKSRWQQGNVFSCSVMHEALHNHYTQKSLSLSPGK
B3: BsVHH-6 (27x18) (antibody)
chain: QVQLVESGGGLVQAGGSLTLSCAAPGRTFGTDVVGWFRQAPGKEREFVASISRSGDGIYYDDSVKGRFTISRNNAWNTVNLQMNSLKVEDTAVYYCAAGDGWSTYDYWGQGTQVTVSSGGGGSGGGGSGGGGSGSQVQLVESGGGLVQPGGSLRLSCAISGGTLDSYGIGWVRQAPGKQREGVSCMSRSDDRTYYADSVKGRFTISKDSAKNTVYLQMTSLKPEDTAVYYCAAVDAYGCSLVQPTTYDFWGLGTQVTVSSGGGGSGGGGSGGGGSTVSSDKTHTCPPCPAPEAAGGPSVFLFPPKPKDTLMISRTPEVTCVVVDVSHEDPEVKFNWYVDGVEVHNAKTKPREEQYNSTYRVVSVLTVLHQDWLNGKEYKCKVSNKALGAPIEKTISKAKGQPREPQVYTLPPSRDELTKNQVSLTCLVKGFYPSDIAVEWESNGQPENNYKTTPPVLDSDGSFLLYSKLTVDKSRWQQGNVFSCSVMHEALHNHYTQKSLSLSPGK
B4: BsVHH-3 (32x16) (antibody)
chain: QVQLVESGGGLVQAGGSLRLSCAASGRTFGSTAVGWFRQVPGKEREFVSAINRSGSATTYADSVKGRFTISRDNAKNTVYLQMNSLTPEDTGVYYCAADSLPYGRPYYFQRSAGEYDYWGQGTQVTVSSGGGGSGGGGSGGGGSGSEVQLVESGGGLVQAGGSLRLSCAASGRAIENYPVGWFRQAPGKEREFVAAITWISGSTLYADSVKGRFTISRDNAKNTVYLQMSSLKPEDTALYYCAAALKTITRGQNDYSYWGQGTQVTVSSGGGGSGGGGSGGGGSTVSSDKTHTCPPCPAPEAAGGPSVFLFPPKPKDTLMISRTPEVTCVVVDVSHEDPEVKFNWYVDGVEVHNAKTKPREEQYNSTYRVVSVLTVLHQDWLNGKEYKCKVSNKALGAPIEKTISKAKGQPREPQVYTLPPSRDELTKNQVSLTCLVKGFYPSDIAVEWESNGQPENNYKTTPPVLDSDGSFLLYSKLTVDKSRWQQGNVFSCSVMHEALHNHYTQKSLSLSPGK
B5: BsVHH-16 (27x22) (antibody)
chain: QVQLVESGGGLVQAGGSLTLSCAAPGRTFGTDVVGWFRQAPGKEREFVASISRSGDGIYYDDSVKGRFTISRNNAWNTVNLQMNSLKVEDTAVYYCAAGDGWSTYDYWGQGTQVTVSSGGGGSGGGGSGGGGSGSEVQLVESGGGLVQAGGSLRLSCAASGSIFSINAMAWFRQVPGMERELVAAISRDGGASVYRDSVKGRFTISRDNSKNTVYLQMNTLKPEDTAIYVCAATRAIGWTARWITTDFDFWGQGTQVTVSSGGGGSGGGGSGGGGSTVSSDKTHTCPPCPAPEAAGGPSVFLFPPKPKDTLMISRTPEVTCVVVDVSHEDPEVKFNWYVDGVEVHNAKTKPREEQYNSTYRVVSVLTVLHQDWLNGKEYKCKVSNKALGAPIEKTISKAKGQPREPQVYTLPPSRDELTKNQVSLTCLVKGFYPSDIAVEWESNGQPENNYKTTPPVLDSDGSFLLYSKLTVDKSRWQQGNVFSCSVMHEALHNHYTQKSLSLSPGK
B6: BsVHH-20 (36x22) (antibody)
chain: QVQLVESGGGLVQAGGSLRLSCAASGRTLSRYAMGWFRQAPGSEREFVAASSWGGDTFYADSVEGRFTFSRDNAKNAVYLQMNSLQPEDTAAYYCAAAPTSFPTTAYSSSNSYAYWGQGTQVTVSSGGGGSGGGGSGGGGSGSEVQLVESGGGLVQAGGSLRLSCAASGSIFSINAMAWFRQVPGMERELVAAISRDGGASVYRDSVKGRFTISRDNSKNTVYLQMNTLKPEDTAIYVCAATRAIGWTARWITTDFDFWGQGTQVTVSSGGGGSGGGGSGGGGSTVSSDKTHTCPPCPAPEAAGGPSVFLFPPKPKDTLMISRTPEVTCVVVDVSHEDPEVKFNWYVDGVEVHNAKTKPREEQYNSTYRVVSVLTVLHQDWLNGKEYKCKVSNKALGAPIEKTISKAKGQPREPQVYTLPPSRDELTKNQVSLTCLVKGFYPSDIAVEWESNGQPENNYKTTPPVLDSDGSFLLYSKLTVDKSRWQQGNVFSCSVMHEALHNHYTQKSLSLSPGK
B7: BsVHH-13 (32x19) (antibody)
chain: QVQLVESGGGLVQAGGSLRLSCAASGRTFGSTAVGWFRQVPGKEREFVSAINRSGSATTYADSVKGRFTISRDNAKNTVYLQMNSLTPEDTGVYYCAADSLPYGRPYYFQRSAGEYDYWGQGTQVTVSSGGGGSGGGGSGGGGSGSEVQLVESGGGLVQTGGSLRLSCAASGGTFSRDAMAWFRQVPGKEREFVALISWSGATTNYADSVKGRFAISRDNGKNTVYLQMNRLKPADTAIYYCAADRRPMGSRSYFEPTEYDDWGQGTQVTVSSGGGGSGGGGSGGGGSTVSSDKTHTCPPCPAPEAAGGPSVFLFPPKPKDTLMISRTPEVTCVVVDVSHEDPEVKFNWYVDGVEVHNAKTKPREEQYNSTYRVVSVLTVLHQDWLNGKEYKCKVSNKALGAPIEKTISKAKGQPREPQVYTLPPSRDELTKNQVSLTCLVKGFYPSDIAVEWESNGQPENNYKTTPPVLDSDGSFLLYSKLTVDKSRWQQGNVFSCSVMHEALHNHYTQKSLSLSPGK
B8: BsVHH-4 (35x16) (antibody)
chain: QVQLQESGGGLVQGGGSLRLSCAASGGIFSSYAMGWFRQAPGKEREFVAAISRSGRSTNYADSVKGRFTISRDNAKSTVYLQMNSLKPEETAVYYCAAGRYYNSAYDPSPGDFGSWGHGTQVTVSSGGGGSGGGGSGGGGSGSEVQLVESGGGLVQAGGSLRLSCAASGRAIENYPVGWFRQAPGKEREFVAAITWISGSTLYADSVKGRFTISRDNAKNTVYLQMSSLKPEDTALYYCAAALKTITRGQNDYSYWGQGTQVTVSSGGGGSGGGGSGGGGSTVSSDKTHTCPPCPAPEAAGGPSVFLFPPKPKDTLMISRTPEVTCVVVDVSHEDPEVKFNWYVDGVEVHNAKTKPREEQYNSTYRVVSVLTVLHQDWLNGKEYKCKVSNKALGAPIEKTISKAKGQPREPQVYTLPPSRDELTKNQVSLTCLVKGFYPSDIAVEWESNGQPENNYKTTPPVLDSDGSFLLYSKLTVDKSRWQQGNVFSCSVMHEALHNHYTQKSLSLSPGK
B9: BsVHH-10 (36x18) (antibody)
chain: QVQLVESGGGLVQAGGSLRLSCAASGRTLSRYAMGWFRQAPGSEREFVAASSWGGDTFYADSVEGRFTFSRDNAKNAVYLQMNSLQPEDTAAYYCAAAPTSFPTTAYSSSNSYAYWGQGTQVTVSSGGGGSGGGGSGGGGSGSQVQLVESGGGLVQPGGSLRLSCAISGGTLDSYGIGWVRQAPGKQREGVSCMSRSDDRTYYADSVKGRFTISKDSAKNTVYLQMTSLKPEDTAVYYCAAVDAYGCSLVQPTTYDFWGLGTQVTVSSGGGGSGGGGSGGGGSTVSSDKTHTCPPCPAPEAAGGPSVFLFPPKPKDTLMISRTPEVTCVVVDVSHEDPEVKFNWYVDGVEVHNAKTKPREEQYNSTYRVVSVLTVLHQDWLNGKEYKCKVSNKALGAPIEKTISKAKGQPREPQVYTLPPSRDELTKNQVSLTCLVKGFYPSDIAVEWESNGQPENNYKTTPPVLDSDGSFLLYSKLTVDKSRWQQGNVFSCSVMHEALHNHYTQKSLSLSPGK

For the assay, the target named is T1, human IL-2 receptor IL-2Rα/IL-2Rβ/γc on HEK-Blue IL-2 cells (UniProt P01589 22-272; P14784 27-551; P31785 23-369).
T1 chain 1: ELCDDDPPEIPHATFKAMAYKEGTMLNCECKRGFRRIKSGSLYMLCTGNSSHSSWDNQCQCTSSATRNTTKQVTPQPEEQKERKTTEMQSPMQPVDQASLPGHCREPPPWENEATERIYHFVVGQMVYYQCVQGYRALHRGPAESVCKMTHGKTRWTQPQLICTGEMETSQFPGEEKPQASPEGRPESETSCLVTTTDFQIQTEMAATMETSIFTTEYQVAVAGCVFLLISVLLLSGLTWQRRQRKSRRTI
T1 chain 2: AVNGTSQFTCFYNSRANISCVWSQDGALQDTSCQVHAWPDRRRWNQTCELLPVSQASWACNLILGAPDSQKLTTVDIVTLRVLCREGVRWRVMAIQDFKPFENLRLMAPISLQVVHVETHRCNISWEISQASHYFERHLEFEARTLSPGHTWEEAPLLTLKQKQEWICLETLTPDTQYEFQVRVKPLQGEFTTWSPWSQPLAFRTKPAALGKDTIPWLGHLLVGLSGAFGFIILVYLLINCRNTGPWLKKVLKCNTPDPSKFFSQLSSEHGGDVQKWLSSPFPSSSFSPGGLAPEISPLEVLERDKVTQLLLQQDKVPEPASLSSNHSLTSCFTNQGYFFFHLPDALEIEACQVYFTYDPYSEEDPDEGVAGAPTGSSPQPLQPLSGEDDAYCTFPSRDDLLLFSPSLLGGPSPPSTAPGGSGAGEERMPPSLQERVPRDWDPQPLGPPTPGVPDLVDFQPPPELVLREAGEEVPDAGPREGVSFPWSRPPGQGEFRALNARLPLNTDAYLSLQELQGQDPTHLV
T1 chain 3: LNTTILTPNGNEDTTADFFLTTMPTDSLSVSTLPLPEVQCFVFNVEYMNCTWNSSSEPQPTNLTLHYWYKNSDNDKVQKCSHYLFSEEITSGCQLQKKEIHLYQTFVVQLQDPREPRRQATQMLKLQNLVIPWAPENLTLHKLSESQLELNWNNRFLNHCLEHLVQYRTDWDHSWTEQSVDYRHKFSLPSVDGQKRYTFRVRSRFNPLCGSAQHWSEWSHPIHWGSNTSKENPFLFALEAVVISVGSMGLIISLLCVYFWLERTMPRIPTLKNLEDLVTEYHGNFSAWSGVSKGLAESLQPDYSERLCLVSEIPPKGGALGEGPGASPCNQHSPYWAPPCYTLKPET
The experiment in a line: FACS cell binding; avid.
As to B1, it took 121 nM to reach a half-maximal effect (EC50).

The molecule B2 returned an EC50 of 38.1 nM. Against the preceding molecule, the EC50 is about 3.2-fold lower.

Molecule B3 displayed an EC50 of 172 nM.

As to B4, a half-maximal effect (EC50) was put at 3.7 nM.

Consider B5, for which the EC50 is 659 nM.

With B6, the response was half-maximal at 3.4 nM (EC50). Compared with the last molecule, the EC50 is about 190-fold lower.

In turn, B7 showed an EC50 of 41.8 nM.

In the case of B8, a half-maximal response (EC50) required 3.5 nM.

Molecule B9 showed an EC50 of 4.2 nM.
